Data set [1] concerns the molecule itself. As to the kind of experiment: FRET or BRET; donor UBE2J2_(A488) and acceptor UBE2J2_(A594) co-reconstituted in liposomes with 10% or 60% SFAs (P/L = 1:20,000 and 1:5000); 37 °C; 20 mM HEPES/KOH pH 7.4, 150 mM KCl, 5 mM magnesium acetate, 0.1 mM TCEP, 0.2 mg/mL BSA; excitation 480 nm, I614/I516. A general note: Bioluminescence resonance energy transfer reports proximity on the nanometre scale.

Data set [2] concerns the target ubiquitin-activating enzyme E1 (yeast Uba1) (yeast, UniProt P22515 1-1024). As to the kind of experiment: cross-linking; UBE2J2 proteoliposomes (10% or 60% SFAs, P/L = 1:32,000) incubated with E1 ± BMOE; with or without pre-incubation with low OG; SDS-PAGE and fluorescence scanning. The following applies: both partners purified.

Substitutions are numbered along the chain they refer to. In names and notes the source's numbering stands.

Chain of ubiquitin-activating enzyme E1 (yeast Uba1) (P22515 whole entry): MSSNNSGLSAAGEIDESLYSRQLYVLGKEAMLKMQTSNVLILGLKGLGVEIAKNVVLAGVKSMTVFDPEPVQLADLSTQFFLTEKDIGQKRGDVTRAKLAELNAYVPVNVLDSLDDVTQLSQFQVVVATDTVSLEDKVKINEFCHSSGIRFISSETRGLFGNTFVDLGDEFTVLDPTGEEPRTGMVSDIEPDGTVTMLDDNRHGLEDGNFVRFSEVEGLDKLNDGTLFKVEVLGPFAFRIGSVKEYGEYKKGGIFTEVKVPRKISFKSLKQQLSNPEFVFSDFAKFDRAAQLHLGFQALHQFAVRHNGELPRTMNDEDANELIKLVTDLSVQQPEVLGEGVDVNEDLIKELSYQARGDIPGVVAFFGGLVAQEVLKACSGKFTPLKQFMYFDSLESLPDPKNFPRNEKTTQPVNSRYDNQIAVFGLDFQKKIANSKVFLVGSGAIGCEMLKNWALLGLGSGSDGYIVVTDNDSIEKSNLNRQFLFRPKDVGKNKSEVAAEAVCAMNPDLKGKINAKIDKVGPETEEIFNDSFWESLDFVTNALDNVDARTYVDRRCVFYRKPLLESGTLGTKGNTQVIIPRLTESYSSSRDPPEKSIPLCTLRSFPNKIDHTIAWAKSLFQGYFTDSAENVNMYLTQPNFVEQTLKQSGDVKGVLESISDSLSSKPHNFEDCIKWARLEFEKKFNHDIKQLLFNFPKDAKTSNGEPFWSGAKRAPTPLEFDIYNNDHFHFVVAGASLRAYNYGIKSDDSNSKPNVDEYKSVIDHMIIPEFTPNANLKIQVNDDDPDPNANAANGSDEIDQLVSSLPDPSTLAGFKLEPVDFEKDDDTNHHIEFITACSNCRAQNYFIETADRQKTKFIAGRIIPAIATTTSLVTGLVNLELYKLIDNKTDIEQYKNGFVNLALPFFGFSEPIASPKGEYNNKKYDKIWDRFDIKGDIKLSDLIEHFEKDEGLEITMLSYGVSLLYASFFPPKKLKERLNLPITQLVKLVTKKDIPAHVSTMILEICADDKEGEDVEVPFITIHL

B1: UBE2J2 (full-length, membrane-anchored, fluorescently labeled, reconstituted in liposomes) (enzyme, human, UniProt Q8N2K1 1-259, looked up)
chain: MSSTSSKRAPTTATQRLKQDYLRIKKDPVPYICAEPLPSNILEWHYVVRGPEMTPYEGGYYHGKLIFPREFPFKPPSIYMITPNGRFKCNTRLCLSITDFHPDTWNPAWSVSTILTGLLSFMVEKGPTLGSIETSDFTKRQLAVQSLAFNLKDKVFCELFPEVVEEIKQKQKAQDELSSRPQTLPLPDVVPDGETHLVQNGIQLLNGHAPGAVPNLAGLQQANRHHGLLGGALANLFVIVGFAAFAYTVKYVLRSIAQE
modifications: fluorescent label at the C-terminus by sortase A (fluorophore-conjugated GGC peptide): DL680; Alexa Fluor 488 or Alexa Fluor 594 in the FRET assay
notes: UBE2J2, human, ubiquitin-conjugating enzyme E2 J2 with C-terminal transmembrane segment; The same construct carries different C-terminal dyes in different experiments; also called UBE2J2_(DL680); UBE2J2_(A488)
For B1, the binding result in data set [1] and in data set [2] was “binds” throughout.

B2: UBE2J2^F137E (membrane-anchored, reconstituted in liposomes) (enzyme, human, UniProt Q8N2K1 1-259, looked up)
chain: B1 chain with F137E
modifications: fluorescently labeled (UBE2J2 variants were fluorescently labeled after affinity purification)
notes: UBE2J2, human, with F137E; also called UBE2J2 F137E mutant
On to B2, for which the binding result in data set [2] is “binds”.

(Values after paper PMC12511567, “UBE2J2 sensitizes the ERAD ubiquitination cascade to changes in membrane lipid saturation” (Nature Communications, 2025).)
